In the RNAGym collection of RNA variant scans (doi:10.1073/pnas.2313332121):

B1: TPR t1 (parent)
chain: GACCAAUCUGCCCUCAGAGCUCGAGAACAUCUUCGGAUGCAGAGGAGGCAGGCUUCGGUGGCGCGAUAGCGCCAACGUCCUCAACCUCCAAUGCAUCCCACCACAUGAUGAUGCCUGAAGAGCCUUGGUUUUUUG

Variants of: B1
Assay: polymerase ribozyme fitness, log enrichment relative to wild type (log ratio); higher = more active; in vitro selection for triplet polymerase activity
How it was run: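 Mutant libraries for each subunit of a heterodimeric triplet polymerase ribozyme were made by PCR and then transcribed. Each library underwent one round of in vitro selection in triplicate: annealing with a biotinylated primer, the partner subunit and triplets, frozen incubation at −7 °C, gel excision of extended constructs, streptavidin-bead capture and RT-PCR. Input and output libraries were Illumina-sequenced, and only genotypes with ≥10 input reads and ≥1 read per output were kept. Fitness is the logarithm, base 2, of genotype enrichment over wild-type enrichment, computed from inverse-variance-weighted replicate averages.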

| Variant | polymerase ribozyme fitness (log ratio) |
| --- | --- |
| G48U A121C | -0.0339 |
| C13A U55C G58A G63A | -3.2 |
| G19A G63C | -2.92 |
| C13U C99U | -2.12 |
| G42U G58C C82G U87C | -2.71 |
| G71U A119U | -0.434 |
| C12U G39A C85U | -1.02 |
| G77C A121U | 0.189 |
| C11U C79G G93U | -3.61 |
| C12G U30C | -2.82 |
| C72G U78G | -0.102 |
| C40G G58A G107U U112A G122U | -5.89 |
| A16U A105C G120U | -3.61 |
| C99A C124A | -4.35 |
| C73G | -0.606 |
| C40A G71U G110C C114A | -6.53 |
| A37U G45U C56U C70G C102G G113A U125A | -7.38 |
| C76A C82U A95G C104G G120C | -5.79 |
| U14A G63U C79U | -3.41 |
| A41C G128C | -3.34 |
| G19A A74C | -3.23 |

| Variant | polymerase ribozyme fitness (log ratio) |
| --- | --- |
| A43C G61U C64G A121G | -6.23 |
| U14C C49U U130A | -2.74 |
| C70G U78C U92C | -5.65 |
| A2U C49U G113C | -5.26 |
| U92C U112G G113U U130C | -5.75 |
| C12G G47A G113A C124U U129G U133A | -4.6 |
| C8A C86U | 0.466 |
| C12G C15A A41G G110A | -4.25 |
| C3G C82U | -1.74 |
| C13U A16C G48C U59A A68G A100C A121C | -7.2 |
| C40A A66U C72G C94U | -3.54 |
| G52C U55G A83C C115U A118G | -2.39 |
| C11A G93U | -1.93 |
| G48U U87A | -1.44 |
| A66G C72G A95U G117U U132C | -6.16 |
| G35U C123G | -2.32 |
| C8G G36C C56A C70U U96C A119U | -5 |
| G52U U81C | -1.74 |
| C13G C72G | -0.869 |
| C115U G135U | -1.91 |
| U7G G17A G39A U55A G61A C82G C115A U130C | -1.97 |

| Variant | polymerase ribozyme fitness (log ratio) |
| --- | --- |
| C3A G10A G44U | -3.54 |
| G44A A66G U133G | -2.29 |
| C114U U130A | -2.7 |
| A68G G110U | -3.66 |
| G69U C99A A111C | -2.81 |
| G71C A95U A111G C123U | -3.04 |
| C62U C94A | -1.69 |
| C72G G77A G120A | -1.96 |
| A26U U78A | -3.18 |
| A66C C70U G113A | -2.81 |
| A2G G45A G63U U112A | -0.348 |
| C8G C13G G17A G122A | -0.902 |
| C4A C56G | -1.83 |
| U59G A111G | 0.731 |
| C28A G60A C97U U112A | -2.26 |
| C79A G128C | -3.31 |
| G39A C102A | -2.49 |
| C15U A43U G48A A100C A111G | -5.15 |
| G48A G52U C80G | -5.98 |
| U9A U116C U125A | 0.151 |
| A18C C73A | -2.69 |

| Variant | polymerase ribozyme fitness (log ratio) |
| --- | --- |
| G51C C53A | -4.19 |
| A50U C56U C73G C88U | -3.49 |
| C70A C123U | -0.0495 |
| C99U | -3.02 |
| C31A G120C | -4.32 |
| U9A A46U U59C U78A C89G U109A | -7.76 |
| C28A A50C C73A G113A | -4.23 |
| A6U U96C C101U G122A | -0.932 |
| C22U A37U C56U | -5.01 |
| C4U A50G C62U G110A | -1.24 |
| C80A U106A | -3.28 |
| C34A G47U G61A C86U | -4.04 |
| G60A U109A | -5.33 |
| U14A A16U A50U C72A U81C | -5.83 |
| A6C C13A G48C C49G C85A U92C | -4.52 |
| C62U A103U | -4.85 |
| A29G C123G | 0.246 |
| C12A A46U C62U C98G C115G U132G | -6.35 |
| G63U C70G C89A A90U A100U A121G | -2.02 |
| U55A G63C C98U G113U | -4.52 |
| G42U G47C C49G | -2.84 |
